{"source": "patent US20190218277A1", "about": "(Chugai, published 2019)", "binders": {"B1": {"name": "DG_3CH1047-SG182/3CL658-SK1 (antibody, human IgG1, kappa, V domains shown)", "VH": "QVQLVQSGPDVEKPGASVKVSCKASGYTFTSYYMHWVRQAPGQGLEWMGVINPRGGSRRSAQKFQGRITMTRDTSTSTVYMELSSLRSEDTAVYYCARGGEALFYDSYTTPFDGGSWWFDPWGQGSLVTVSS", "VL": "DIQLTQSPSSLSASVGDRVTFTCQASQEIRKYLNWYQQKPGKAPKLLIYDASELKTGVPSRFSGSGSGTDFTFTISSLQPEDVATYYCQQFEDLPITFGQGTRLQIKR", "notes": "also called 3Cam"}}, "key": {"[1]": {"molecular_target": "T1, Recombinant soluble E protein (0.8E-His) from DENV-2 (DENV-2, UniProt P14340 281-675)", "T1 construct": "also called DENV-2 E protein; DV2"}, "[2]": {"molecular_target": "T2, Recombinant soluble E protein (0.8E-His) from DENV-4 (DENV-4, UniProt P09866 280-674)", "T2 construct": "also called DENV-4 E protein; DV4"}, "[3]": {"molecular_target": "T3, Recombinant soluble E protein (0.8E-His) from DENV-1 (DENV-1, UniProt P27909 281-675)", "T3 construct": "also called DENV-1 E protein; DV1"}, "[4]": {"molecular_target": "T3, Recombinant soluble E protein …", "remark": "listed apart in the source"}, "[5]": {"molecular_target": "T4, Recombinant soluble E protein (0.8E-His) from DENV-3 (DENV-3, UniProt P27915 281-673)", "T4 construct": "also called DENV-3 E protein; DV3"}, "[6]": {"molecular_target": "T4, Recombinant soluble E protein …", "remark": "listed apart in the source"}}, "note": "Like-named read-outs stand apart in the source and are kept apart here.", "data": [{"binder": "B1", "values": [{"measurement": "Kd", "setting": "[1]", "result": 0.765, "unit": "nM"}, {"measurement": "Kd", "setting": "[2]", "result": 9.11, "unit": "nM"}, {"measurement": "Kd", "setting": "[3]", "result": 3.51, "unit": "nM"}, {"measurement": "Kd", "setting": "[4]", "result": 2.98, "unit": "nM"}, {"measurement": "Kd", "setting": "[5]", "result": 0.00382, "unit": "nM"}, {"measurement": "Kd", "setting": "[6]", "result": 0.00501, "unit": "nM"}]}]}
